{"source": "patent US20210340238A1", "about": "“TGFß1 INHIBITORS AND USE THEREOF” (Scholar Rock, Inc., priority 2018, published 2021)", "molecules": {"B1": {"name": "Ab2: isoform-selective inhibitor of TGFβ1 activation; VH SEQ ID NO: 13, VL SEQ ID NO: 15; human IgG4 (antibody, V domains shown)", "VH": "EVQLLESGGGLVQPGGSLRLSCAASGFTFADYAMTWVRQAPGKGLEWVSAISGSGAATYFADSVKGRFTISRDNSKNTLYLQMNSLRAEDTAVYYCARVSSGHWDFDYWGQGTLVTVSS", "VL": "DIQLTQSPSSLSASVGDRVTITCRASQSISSYLNWYQQKPGKAPKLLIYAASNLQSGVPSRFSGSGSGTDFTLTISSLQPEDFATYYCQQTYTVPLTFGGGTKVEIK", "modifications": "human IgG4 constant regions"}}, "key": {"[1]": {"biological_target": "Matrix-associated proTGFβ1", "experiment": "Octet binding, ECM average of hLTBP1 and hLTBP3 complexes", "set-up": "species or system human", "conditions": "average KD of (B) and (C), read-out: (D) ECM AVRG", "excerpt": "Column (A) of the table provides monoclonal antibodies with discrete amino acid sequences. […] Columns (B), (C), (E) and (F) provide affinities of each of the listed antibodies, measured in KD, towards the antigen complex as indicated, respectively. […] Average KD values calculated from (B) and (C) are shown in the corresponding column (D), which collectively represents affinities of the antibodies to ECM- or matrix-associated proTGFβ1 complexes. Similarly, Average KD values calculated from (E) and (F) are shown in the corresponding column (G), which collectively represents affinities of the antibodies to cell-surface or cell-associated proTGF complexes. Finally, relative ratios between the average KD values from columns (D) and (G) are expressed as fold bias” in column (H). Thus, the greater the numerical of column (H) is, the greater bias exists for the particular antibody, when comparing binding preferences of the antibody for matrix-associated complexes to cell-surface complexes. This is one way of quantitatively representing and comparing inherent bias of antibodies to their target complexes. Such analyses may be useful in guiding the selection process for a candidate antibody for particular therapeutic use."}, "[2]": {"biological_target": "Matrix-associated proTGFβ1", "experiment": "MSD-SET binding, ECM average of hLTBP1 and hLTBP3 complexes", "set-up": "species or system human", "conditions": "average KD of (B) and (C), read-out: (D) ECM AVRG", "excerpt": "(§1) Column (A) of the table provides monoclonal antibodies with discrete amino acid sequences. […] Columns (B), (C), (E) and (F) provide affinities of each of the listed antibodies, measured in KD, towards the antigen complex as indicated, respectively. […] Similarly, Average KD values calculated from (E) and (F) are shown in the corresponding column (G), which collectively represents affinities of the antibodies to cell-surface or cell-associated proTGF complexes. Finally, relative ratios between the average KD values from columns (D) and (G) are expressed as fold bias” in column (H). Thus, the greater the numerical of column (H) is, the greater bias exists for the particular antibody, when comparing binding preferences of the antibody for matrix-associated complexes to cell-surface complexes. This is one way of quantitatively representing and comparing inherent bias of antibodies to their target complexes. Such analyses may be useful in guiding the selection process for a candidate antibody for particular therapeutic use. Select antibodies of the present disclosure, as measured by MSD-SET, show context-bias (i.e., greater than five-fold bias) or unbias (i.e., less than 5-fold bias) toward matrix-associated complexes over cell-associated complexes. […] Without being bound by a particular theory, the differences in the kinetics of the assays and/or differences in the nature of recombinant proteins may account for the noticeable differences seen in Ab19 binding to hGARP complexes observed in the above Octet assay (see Table 6) compared to the below MSD-SET assay (see Table 7 below). For example, the Octet assay measures kinetic on and off rates, while the MSD-SET assay measures binding at equilibrium. In addition, the recombinant antibodies used in the Octet assay were expressed as IgG1 antibodies in yeast, while the antibodies used in the MSD assay were expressed as IgG4 antibodies in mammalian cells."}, "Cell-associated proTGFβ1": {"test_system": "Cell-associated proTGFβ1", "experiment": "MSD-SET binding, cell average of hGARP and hLRRC33 complexes", "set-up": "species or system human", "conditions": "average KD of (E) and (F), read-out: (G) Cell AVRG", "excerpt": "as §1"}, "[3]": {"test_system": "TGFβ signaling (Smad2/3 phosphorylation; Col1a1, Col3a1, Fn1)", "experiment": "Col4a3−/− genetic model of Alport syndrome (kidney pSmad2/3 ELISA, qPCR)", "assay_type": "in vivo, mouse", "excerpt": "The murine Col4a3−/− model is an established genetic model of autosomal recessive Alport syndrome. Alport mice lack a functional collagen 4A3 gene (Col4A3−/−) and therefore cannot form normal type IV collagen trimers, which require α3, α4, and α5 chains. Col4a3−/− mice develop fibrosis in the kidney consistent with renal fibrosis in human patients, including interstitial fibrosis and tubular atrophy, and Col4a3−/− mice develop end-stage renal disease (ESRD) between 10 and 30 week of age, depending on the genetic background of the mouse. The structural and functional manifestation of renal pathology in Col4a3−/− mice, combined with the progression to ESRD make Col4a3−/− mice an ideal model to understand kidney fibrosis. Previous reports point to the importance of the TGFβ signaling pathway in this process, and treatment with either […], a known activator of TGFβ, or with a TGFβ ligand trap has been reported to prevent renal fibrosis and inflammation in Alport mice (Hahm et al. (2007) The American Journal of Pathology, 170(1): 110-125).\nF1 offspring from Col4a3+/− males on a 129/Sv genetic background crossed to Col4a3+/− females on a C57/Bl6 genetic were employed for the study.\nIt is well documented that TGFβ receptor activation leads to a downstream signaling cascade of intra cellular events, including phosphorylation of Smad2/3. […] FIG. 7A provides a graph showing relative ratios of phosphorylated vs. total (phosphorylated and unphospohrylated) Smad2/3.\nAn IgG was used as negative control in both heterozygous (Col4a3+/−; Het) and knock out (Col4a3−/−; KO) mice. Following six weeks of antibody treatment (12 weeks after birth), animals were sacrificed, and the kidneys were collected for analyses.\nTo assess the functional effect of TGFβ inhibition, a third study was carried out in the Col4a3−/− model of kidney fibrosis. […] Treatment effect was assessed by gene expression, which was evaluated by quantitative polymerase chain reaction (qPCR) using cDNA generated from the kidneys of mice in this study."}, "[4]": {"test_system": "liver fibrosis (liver hydroxyproline)", "experiment": "CCl4 model of liver fibrosis", "assay_type": "in vivo, mouse", "conditions": "CCl4 mice, 4 weeks", "procedure": "Carbon tetrachloride (CCl4) treatment of mice is a well-characterized model of liver fibrosis. In this model, Balb/C mice were dosed intraperitoneally (i.p.) twice weekly with 2.5 μl of a 20% CCl4 solution in corn oil per gram bodyweight. This CCl4 dosing was maintained throughout the duration of the study(6 weeks). After two weeks of CCl4 dosing, dosing with test articles started. […] After 6 weeks of CCl4 dosing (4 weeks of antibody treatment), mice were sacrificed and liver tissue was collected.\nThe hydroxyproline assay (see description above) was used to measure fibrosis in liver lysates from this study. […] The treatment effect of both TGFβ1-specific antibodies was similar to that of the pan-TGFβ inhibitor 1D11."}, "proTGFβ1 C4S": {"biological_target": "proTGFβ1 C4S (Homo sapiens, UniProt P01137, C33S)", "sequence (P01137 30-390 C33S)": "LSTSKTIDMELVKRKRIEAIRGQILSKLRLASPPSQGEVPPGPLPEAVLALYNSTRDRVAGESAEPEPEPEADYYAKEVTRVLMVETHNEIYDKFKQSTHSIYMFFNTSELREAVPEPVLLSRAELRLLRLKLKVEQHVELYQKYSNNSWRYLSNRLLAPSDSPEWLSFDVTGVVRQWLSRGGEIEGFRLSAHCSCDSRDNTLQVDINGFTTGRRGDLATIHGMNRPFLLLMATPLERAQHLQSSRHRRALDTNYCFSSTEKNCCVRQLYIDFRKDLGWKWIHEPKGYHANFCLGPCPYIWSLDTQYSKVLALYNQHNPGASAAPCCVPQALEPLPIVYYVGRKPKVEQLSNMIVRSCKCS", "experiment": "HDX-MS determination of binding regions", "conditions": "1:3 molar ratio of proTGFβ1 to Fab", "quoted_text": "Briefly, HDX-MS relies on the exchange of the protein backbone amide hydrogens with deuterium in solution. The backbone amide hydrogens involved in weak hydrogen bonds or located at the surface of the protein may exchange rapidly while those buried in the interior or those involved in stabilizing hydrogen bonds exchange more slowly. Based on the mass difference between hydrogen (1 Da) and deuterium (2 Da), which can be detected for example by mass spectrometry, the H-D exchange can be monitored overtime, Thus, by measuring HDX rates of backbone amide hydrogens, one can obtain information on protein dynamics, conformation and protein-protein interaction such as antibody-antigen-binding.\nIn HDX-MS, the regions of an antigen that are tightly bound by an antibody are protected from proton exchange, due to protein-protein interaction, while regions that are exposed to solvent can readily undergo proton exchange. Based on this, binding regions within the antigen, which are protected by the specific binding of the antibody, were identified."}, "[5]": {"experiment": "Effective dose and therapeutic window across preclinical models (summary)", "assay_type": "in vivo", "quoted_text": "Effective amount: An “effective amount” (or therapeutically effective amount, or therapeutic dose) is a dosage, concentration, or dosing regimen that achieves statistically significant clinical benefits (e.g., efficacy) in a patient population.\nTherapeutic window: The term “therapeutic window” refers to a range of doses/concentrations that produces therapeutic response without causing significant/observable/unacceptable adverse effect (e.g., within adverse effects that are acceptable or tolerable) in subjects. Therapeutic window may be calculated as a ratio between minimum effective concentrations (MEC) to the minimum toxic concentrations (MTC)."}}, "note": "Entries after “also recorded” stand apart in the source; their conditions may differ.", "data": [{"molecule": "B1", "values": [{"measurement": "Kd", "setting": "[1]", "value": 0.157, "unit": "nM"}, {"measurement": "Kd", "setting": "[2]", "value": 0.266, "unit": "nM"}, {"measurement": "Kd", "setting": "Cell-associated proTGFβ1", "value": 2.3, "unit": "nM"}, {"measurement": "Expression of Col1a1, Col3a1 and Fn1 in kidney (qPCR)", "setting": "[3]; 5 mg/kg i.p. twice a week from week 6 to week 14, Col4a3−/− mice", "value": "significantly reduced the expression of Col1a1 and Col3a1; also recorded: Expression of Fn1 showed a similar trend in Ab2-treated Col4a3−/− mice, though this effect was not statistically significant"}, {"measurement": "Relative ratio of phosphorylated vs. total Smad2/3 in whole kidney lysates", "setting": "[3]; i.p. twice weekly for six weeks from week 6, Ab3 5 or 1.5 mg/kg, Ab2 1.5 mg/kg, vs IgG treated Col4a3−/− mice", "value": "significant reduction in relative phosphorylation of Smad2/3"}, {"measurement": "Relative ratio of phosphorylated vs. total Smad2/3 in whole kidney lysates", "setting": "[3]; single 10 mg/kg i.p. dose 48 hours before sacrifice, 9 week old Col4a3−/− mice", "value": "sufficient to significantly inhibit pSmad2/3 signaling"}, {"measurement": "Liver hydroxyproline", "setting": "[4]; high dose 15 mg/kg i.p. twice weekly", "value": "statistically significant reduction in liver hydroxyproline"}, {"measurement": "Liver hydroxyproline", "setting": "[4]; lower doses 5 or 1.5 mg/kg i.p. twice weekly", "value": "trend towards reduced liver hydroxyproline, but these differences are not statistically significant"}, {"measurement": "Regions of proTGFβ1 protected from H/D exchange upon Fab binding (binding regions 1, 2, 3)", "setting": "proTGFβ1 C4S", "value": "LREAVPE; also recorded: WKWIHEPKGYHANFCLG"}, {"measurement": "Effective amount", "setting": "[5]", "value": "3 to 30", "unit": "mg/kg"}]}]}
